Test results: PMC3508374 (Molecular microbiology, 2012)
Substitutions are numbered along the chain they refer to. Names may count otherwise.

B1: Bacillus subtilis Fur (ferric uptake regulator), wild type (natural protein, UniProt P54574 1-149, looked up)
chain: MENRIDRIKKQLHSSSYKLTPQREATVRVLLENEEDHLSAEDVYLLVKEKSPEIGLATVYRTLELLTELKVVDKINFGDGVSRYDLRKEGAAHFHHHLVCMECGAVDEIEEDLLEDVEEIIERDWKFKIKDHRLTFHGICHRCNGKETE
B2: Bacillus subtilis Fur H96A (site 3 mutant) (natural protein, UniProt P54574 1-149, looked up)
chain: B1 chain with H96A
B3: Bacillus subtilis Fur H132A (site 3 mutant) (natural protein, UniProt P54574 1-149, looked up)
chain: B1 chain with H132A
B4: Bacillus subtilis Fur H37A (site 2 mutant) (natural protein, UniProt P54574 1-149, looked up)
chain: B1 chain with H37A
B5: Bacillus subtilis Fur H97A (site 2 mutant) (natural protein, UniProt P54574 1-149, looked up)
chain: B1 chain with H97A
B6: Bacillus subtilis Fur H95A (site 2 mutant) (natural protein, UniProt P54574 1-149, looked up)
chain: B1 chain with H95A

Target: the molecule itself
Experiment: SEC

Protein	stoichiometry N
B1	2
B2	2
B3	2
B4	2
B5	2
B6	2
